Measurements published in patent US20220168434A1, “APPLICATION OF TRANSTHYRETIN IN ENTERING EYE AND PREPARING DROP” (YIZHOU (SHANGHAI) BIOLOGICAL MEDICINE CO, LTD., priority 2019, published 2022).

Legend:
[1] = Protein content in vitreous body during two weeks of eye dropping (ELISA, anti-His tag antibody); format: in vivo, New Zealand big-eared rabbits (Oryctolagus cuniculus); settings: New Zealand big-ear rabbits; protein not fused with TTR
Protocol: (§1) The purified TTR protein (at a concentration of 4 μmol/L) prepared in Example 1 after removal of endotoxin and bacteria was subject to treating healthy SD rats (Rattus norregicus) (6 weeks old) and New Zealand big-eared rabbits (Oryctolagus cuniculus) (2 months old, about 2.5 kg) by means of eye dropping, the left eye was the sample eye dropped with the protein, and the right eye was the blank control eye dropped with saline. The protein was administered 1-3 times per day at a dosage of 0.4-0.8 nmol. Two weeks later, the eyeball was removed and separated to obtain the vitreous body sample. It was preliminarily verified by western-blot method (FIG. 7A) that TTR can enter the vitreous cavity from the ocular surface.
(§2) The purified TTR-GFP protein (at a concentration of 4 μmol/L) prepared in Example 2 after removal of endotoxin and bacteria was subject to treating healthy SD rats (Rattus norregicus) (6 weeks old) and New Zealand big-eared rabbits (Oryctolagus cuniculus) (2 months old, about 2.5 kg) by means of eye dropping, the left eye was the sample eye dropped with the protein, and the right eye was the blank control eye dropped with saline. The protein was administered 1-3 times per day at a dosage of 0.4-0.8 nmol. […] The content of TTR-GFP in the vitreous body sample was determined by ELISA with the anti-His tag antibody as the primary antibody (Table 10 and 11). […]

[2] = as above; format: in vivo, SD rats (Rattus norregicus); settings: SD rats; protein not fused with TTR
Protocol: as §1, §2

B1: Ovalbumin: Ovalbumin protein (UniProt Accession No.: P01012) not fused with TTR (protein, UniProt P01012 2-386, looked up)
Ovalbumin: GSIGAASMEFCFDVFKELKVHHANENIFYCPIAIMSALAMVYLGAKDSTRTQINKVVRFDKLPGFGDSIEAQCGTSVNVHSSLRDILNQITKPNDVYSFSLASRLYAEERYPILPEYLQCVKELYRGGLEPINFQTAADQARELINSWVESQTNGIIRNVLQPSSVDSQTAMVLVNAIVFKGLWEKAFKDEDTQAMPFRVTEQESKPVQMMYQIGLFRVASMASEKMKILELPFASGTMSMLVLLPDEVSGLEQLESIINFEKLTEWTSSNVMEERKIKVYLPRMKMEEKYNLTSVLMAMGITDVFSSSANLSGISSAESLKISQAVHAAHAEINEAGREVVGSAEAGVDAASVSEEFRADHPFLFCIKHIATNAVLFFGRCVSP
[1]
  entering the vitreous body after eye dropping (in words): did not enter
[2]
  entering the vitreous body after eye dropping (in words): did not enter
